According to patent US11833164B2, “Methods of treating Fabry disease in patients having a mutation in the GLA gene” (Amicus Therapeutics, Inc., priority 2019, dated 2023):

Tested on: mutant form of α-Gal A expressed in HEK-293 cells
Test: HEK assay (GLP HEK / Migalastat Amenability Assay): α-Gal A activity in lysates of transiently transfected HEK-293 cells incubated with or without 10 μM migalastat
Format: cell-based, human
Conditions: for Absolute increase (% WT) / Relative increase: 10 μM migalastat versus baseline; for Baseline α-Gal A activity (% WT): absence of migalastat; for Baseline α-Gal A activity (% WT) / 10 μM migalastat α-Gal A activity (% WT): percentage of baseline wild-type α-Gal A activity; for Baseline α-Gal A activity (% WT) / Baseline α-Gal A activity / 10 μM migalastat α-Gal A activity / 10 μM migalastat α-Gal A activity (% WT): mean ± SEM; for Baseline α-Gal A activity / 10 μM migalastat α-Gal A activity: lysates of HEK-293 cells transiently transfected with the mutant form; for Baseline α-Gal A activity: incubated 5 days in absence of migalastat; for 10 μM migalastat α-Gal A activity: incubated 5 days with 10 μM migalastat; for 10 μM migalastat α-Gal A activity (% WT): with 10 μM migalastat, 5 days
How it was run: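 Activity reported as 4-MU released (nmol/mg/hr), mean±SEM, from lysates of transiently transfected HEK-293 cells expressing mutant α-Gal A, cultured with or without 10 μM migalastat.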

Row | Molecule | Absolute increase (% WT) | Relative increase | Baseline α-Gal A activity (% WT) | Baseline α-Gal A activity [nmol/mg/h] | 10 μM migalastat α-Gal A activity [nmol/mg/h] | 10 μM migalastat α-Gal A activity (% WT)
1 | K308Q (protein) MQLRNPELHLGCALALRFLALVSWDIPGARALDNGLARTPTMGWLHWERFMCNLDCQEEPDSCISEKLFMEMAELMVSEGWKDAGYEYLCIDDCWMAPQRDSEGRLQADPQRFPHGIRQLANYVHSKGLKLGIYADVGNKTCAGFPGSFGYYDIDAQTFADWGVDLLKFDGCYCDSLENLADGYKHMSLALNRTGRSIVYSCEWPLYMWPFQKPNYTEIRQYCNHWRNFADIDDSWKSIKSILDWTSFNQERIVDVAGPGGWNDPDMLVIGNFGLSWNQQVTQMALWAIMAAPLFMSNDLRHISPQAQALLQDKDVIAINQDPLGKQGYQLRQGDNFEVWERPLSGLAWAVAMINRQEIGGPRSYTIAVASLGKGVACNPACFITQLLPVKRKLGFYEWTSRLRSHINPTGTVLLQLENTMQMSLKDLL | 30.0 | 1.5 | 59.1 ± 3.8 | 24208 ± 1996 | 35663 ± 2680 | 89.1 ± 5.5
2 | Q312K (protein) MQLRNPELHLGCALALRFLALVSWDIPGARALDNGLARTPTMGWLHWERFMCNLDCQEEPDSCISEKLFMEMAELMVSEGWKDAGYEYLCIDDCWMAPQRDSEGRLQADPQRFPHGIRQLANYVHSKGLKLGIYADVGNKTCAGFPGSFGYYDIDAQTFADWGVDLLKFDGCYCDSLENLADGYKHMSLALNRTGRSIVYSCEWPLYMWPFQKPNYTEIRQYCNHWRNFADIDDSWKSIKSILDWTSFNQERIVDVAGPGGWNDPDMLVIGNFGLSWNQQVTQMALWAIMAAPLFMSNDLRHISPQAKALLKDKDVIAINQDPLGKQGYQLRQGDNFEVWERPLSGLAWAVAMINRQEIGGPRSYTIAVASLGKGVACNPACFITQLLPVKRKLGFYEWTSRLRSHINPTGTVLLQLENTMQMSLKDLL | 15.5 | 1.8 | 19.7 ± 1.4 | 6733 ± 510 | 11934 ± 624 | 35.2 ± 1.8
3 | K308R (protein) MQLRNPELHLGCALALRFLALVSWDIPGARALDNGLARTPTMGWLHWERFMCNLDCQEEPDSCISEKLFMEMAELMVSEGWKDAGYEYLCIDDCWMAPQRDSEGRLQADPQRFPHGIRQLANYVHSKGLKLGIYADVGNKTCAGFPGSFGYYDIDAQTFADWGVDLLKFDGCYCDSLENLADGYKHMSLALNRTGRSIVYSCEWPLYMWPFQKPNYTEIRQYCNHWRNFADIDDSWKSIKSILDWTSFNQERIVDVAGPGGWNDPDMLVIGNFGLSWNQQVTQMALWAIMAAPLFMSNDLRHISPQARALLQDKDVIAINQDPLGKQGYQLRQGDNFEVWERPLSGLAWAVAMINRQEIGGPRSYTIAVASLGKGVACNPACFITQLLPVKRKLGFYEWTSRLRSHINPTGTVLLQLENTMQMSLKDLL | 20.3 | 1.3 | 68.9 ± 4.3 | 27103 ± 1767 | 35824 ± 2438 | 89.1 ± 4.5
4 | A309D (protein) MQLRNPELHLGCALALRFLALVSWDIPGARALDNGLARTPTMGWLHWERFMCNLDCQEEPDSCISEKLFMEMAELMVSEGWKDAGYEYLCIDDCWMAPQRDSEGRLQADPQRFPHGIRQLANYVHSKGLKLGIYADVGNKTCAGFPGSFGYYDIDAQTFADWGVDLLKFDGCYCDSLENLADGYKHMSLALNRTGRSIVYSCEWPLYMWPFQKPNYTEIRQYCNHWRNFADIDDSWKSIKSILDWTSFNQERIVDVAGPGGWNDPDMLVIGNFGLSWNQQVTQMALWAIMAAPLFMSNDLRHISPQAKDLLQDKDVIAINQDPLGKQGYQLRQGDNFEVWERPLSGLAWAVAMINRQEIGGPRSYTIAVASLGKGVACNPACFITQLLPVKRKLGFYEWTSRLRSHINPTGTVLLQLENTMQMSLKDLL | 17.6 | 1.2 | 78.3 ± 5.2 | 31696 ± 3036 | 38325 ± 2376 | 95.8 ± 3.7
5 | Q312E (protein) MQLRNPELHLGCALALRFLALVSWDIPGARALDNGLARTPTMGWLHWERFMCNLDCQEEPDSCISEKLFMEMAELMVSEGWKDAGYEYLCIDDCWMAPQRDSEGRLQADPQRFPHGIRQLANYVHSKGLKLGIYADVGNKTCAGFPGSFGYYDIDAQTFADWGVDLLKFDGCYCDSLENLADGYKHMSLALNRTGRSIVYSCEWPLYMWPFQKPNYTEIRQYCNHWRNFADIDDSWKSIKSILDWTSFNQERIVDVAGPGGWNDPDMLVIGNFGLSWNQQVTQMALWAIMAAPLFMSNDLRHISPQAKALLEDKDVIAINQDPLGKQGYQLRQGDNFEVWERPLSGLAWAVAMINRQEIGGPRSYTIAVASLGKGVACNPACFITQLLPVKRKLGFYEWTSRLRSHINPTGTVLLQLENTMQMSLKDLL | 15.1 | 4.6 | 4.1 ± 0.2 | 1365 ± 57 | 6331 ± 466 | 19.2 ± 1.7
6 | Q312L (protein) MQLRNPELHLGCALALRFLALVSWDIPGARALDNGLARTPTMGWLHWERFMCNLDCQEEPDSCISEKLFMEMAELMVSEGWKDAGYEYLCIDDCWMAPQRDSEGRLQADPQRFPHGIRQLANYVHSKGLKLGIYADVGNKTCAGFPGSFGYYDIDAQTFADWGVDLLKFDGCYCDSLENLADGYKHMSLALNRTGRSIVYSCEWPLYMWPFQKPNYTEIRQYCNHWRNFADIDDSWKSIKSILDWTSFNQERIVDVAGPGGWNDPDMLVIGNFGLSWNQQVTQMALWAIMAAPLFMSNDLRHISPQAKALLLDKDVIAINQDPLGKQGYQLRQGDNFEVWERPLSGLAWAVAMINRQEIGGPRSYTIAVASLGKGVACNPACFITQLLPVKRKLGFYEWTSRLRSHINPTGTVLLQLENTMQMSLKDLL | 21.3 | 1.4 | 50.1 ± 4.1 | 16986 ± 1428 | 23967 ± 1400 | 71.5 ± 4.6
7 | L310I (protein) MQLRNPELHLGCALALRFLALVSWDIPGARALDNGLARTPTMGWLHWERFMCNLDCQEEPDSCISEKLFMEMAELMVSEGWKDAGYEYLCIDDCWMAPQRDSEGRLQADPQRFPHGIRQLANYVHSKGLKLGIYADVGNKTCAGFPGSFGYYDIDAQTFADWGVDLLKFDGCYCDSLENLADGYKHMSLALNRTGRSIVYSCEWPLYMWPFQKPNYTEIRQYCNHWRNFADIDDSWKSIKSILDWTSFNQERIVDVAGPGGWNDPDMLVIGNFGLSWNQQVTQMALWAIMAAPLFMSNDLRHISPQAKAILQDKDVIAINQDPLGKQGYQLRQGDNFEVWERPLSGLAWAVAMINRQEIGGPRSYTIAVASLGKGVACNPACFITQLLPVKRKLGFYEWTSRLRSHINPTGTVLLQLENTMQMSLKDLL | 19.6 | 1.3 | 72.8 ± 3.6 | 31871 ± 2599 | 40310 ± 3345 | 92.4 ± 5.1
8 | A309T (protein) MQLRNPELHLGCALALRFLALVSWDIPGARALDNGLARTPTMGWLHWERFMCNLDCQEEPDSCISEKLFMEMAELMVSEGWKDAGYEYLCIDDCWMAPQRDSEGRLQADPQRFPHGIRQLANYVHSKGLKLGIYADVGNKTCAGFPGSFGYYDIDAQTFADWGVDLLKFDGCYCDSLENLADGYKHMSLALNRTGRSIVYSCEWPLYMWPFQKPNYTEIRQYCNHWRNFADIDDSWKSIKSILDWTSFNQERIVDVAGPGGWNDPDMLVIGNFGLSWNQQVTQMALWAIMAAPLFMSNDLRHISPQAKTLLQDKDVIAINQDPLGKQGYQLRQGDNFEVWERPLSGLAWAVAMINRQEIGGPRSYTIAVASLGKGVACNPACFITQLLPVKRKLGFYEWTSRLRSHINPTGTVLLQLENTMQMSLKDLL | 18.6 | 1.2 | 74.1 ± 4.6 | 29214 ± 1907 | 36228 ± 1841 | 92.7 ± 4.8
9 | L311I (protein) MQLRNPELHLGCALALRFLALVSWDIPGARALDNGLARTPTMGWLHWERFMCNLDCQEEPDSCISEKLFMEMAELMVSEGWKDAGYEYLCIDDCWMAPQRDSEGRLQADPQRFPHGIRQLANYVHSKGLKLGIYADVGNKTCAGFPGSFGYYDIDAQTFADWGVDLLKFDGCYCDSLENLADGYKHMSLALNRTGRSIVYSCEWPLYMWPFQKPNYTEIRQYCNHWRNFADIDDSWKSIKSILDWTSFNQERIVDVAGPGGWNDPDMLVIGNFGLSWNQQVTQMALWAIMAAPLFMSNDLRHISPQAKALIQDKDVIAINQDPLGKQGYQLRQGDNFEVWERPLSGLAWAVAMINRQEIGGPRSYTIAVASLGKGVACNPACFITQLLPVKRKLGFYEWTSRLRSHINPTGTVLLQLENTMQMSLKDLL | 23.2 | 2.9 | 12.1 ± 0.8 | 4020 ± 235 | 11558 ± 781 | 35.3 ± 3.1
